The record followed here is publication PMC4372403, “Glycosylation of Phenolic Compounds by the Site-Mutated β-Galactosidase from Lactobacillus bulgaricus L3” (PLoS ONE, 2015).

Substrate in this data set: O=[N+]([O-])c1ccccc1O[C@@H]1O[C@H](CO)[C@H](O)[C@H](O)[C@H]1O
The experiment in a line: purified protein. In kind it is biochemical, Lactobacillus delbrueckii. To be noted: 37°C, 10 min, oNPGal 0.5 to 50 mM, hydrolysis.

B1: BgaL3 (β-galactosidase from Lactobacillus bulgaricus L3) (Lactobacillus delbrueckii subsp. bulgaricus) (protein)
chain: MSNKLVKEKRVDQADLAWLTDPEVYEVNTIPPHSDHESFQSQEELEEGKSSLVQSLDGDWLIDYAENGQGPVNFYAEDFDDSNFKSVKVPGNLELQGFGQPQYVNVQYPWDGSEEIFPPQIPSKNPLASYVRYFDLDEAFWDKEVSLKFDGAATAIYVWLNGHFVGYGEDSFTPSEFMVTKFLKKENNRLAVALYKYSSASWLEDQDFWRMSGLFRSVTLQAKPRLHLEDLKLTASLTDNYQKGKLEVEANIAYRLPNASFKLEVRDSEGDLVAEKLGPIRSEQLEFTLADLPVAAWSAEKPNLYQVRLYLYQAGSLLEVSRQEVGFRNFELKDGIMYLNGQRIVFKGANRHEFDSKLGRAITEEDMIWDIKTMKRSNINAVRCSHYPNQSLFYRLCDKYGLYVIDEANLESHGTWEKVGGHEDPSFNVPGDDQHWLGASLSRVKNMMARDKNHASILIWSLGNESYAGTVFAQMADYVRKADPTRVQHYEGVTHNRKFDDATQIESRMYVPAKVIEEYLTNKPAKPFISVEYAHAMGNSVGDLAAYTALEKYPHYQGGFIWDWIDQGLEKDGHLLYGGDFDDRPTDYEFCGNGLVFADRTESPKLANVKALYANLKLEVKDGQLFLKNDNLFTNSSSYYFLTSLLVDGKLTYQSRPLTFGLEPGESGTFALPWPEVADEKGEVVYRVTAHLKEDLPWADEGFTVAEAEEVAQKLPEFKPEGRPDLVDSDYNLGLKGNNFQILFSKVKGWPVSLKYAGREYLKRLPEFTFWRALTDNDRGAGYGYDLARWENAGKYARLKDISCEVKEDSVLVKTAFTLPVALKGDLTVTYEVDGRGKIAVTADFPGAEEAGLLPAFGLNLALPKELTDYRYYGLGPNESYPDRLEGNYLGIYQGAVKKNFSPYLRPQETGNRSKVRWYQLFDEKGGLEFTANGADLNLSALPYSAAQIEAADHAFELTNNYTWVRALSAQMGVGGDDSWGQKVHPEFCLDAQKARQLRLVIQPLLLK
The Km is the concentration of substrate that gives half-maximal velocity. The Vmax is the top rate of the reaction or transport when substrate is in excess. For orientation: kcat means the maximal rate divided by the concentration of active sites. For orientation: kcat/Km means the turnover number divided by the Michaelis constant. As for B1, the Km stood at 1.38 mM, the maximum rate (Vmax) was found to be 6530 µmol/min/mg, the turnover number (kcat) is 12500 s⁻¹ and the catalytic efficiency (kcat/Km) was 9.06e+06 M⁻¹ s⁻¹.

B2: BgaL3 (β-galactosidase from Lactobacillus bulgaricus L3) (Lactobacillus delbrueckii subsp. bulgaricus; W980F) (protein)
chain: MSNKLVKEKRVDQADLAWLTDPEVYEVNTIPPHSDHESFQSQEELEEGKSSLVQSLDGDWLIDYAENGQGPVNFYAEDFDDSNFKSVKVPGNLELQGFGQPQYVNVQYPWDGSEEIFPPQIPSKNPLASYVRYFDLDEAFWDKEVSLKFDGAATAIYVWLNGHFVGYGEDSFTPSEFMVTKFLKKENNRLAVALYKYSSASWLEDQDFWRMSGLFRSVTLQAKPRLHLEDLKLTASLTDNYQKGKLEVEANIAYRLPNASFKLEVRDSEGDLVAEKLGPIRSEQLEFTLADLPVAAWSAEKPNLYQVRLYLYQAGSLLEVSRQEVGFRNFELKDGIMYLNGQRIVFKGANRHEFDSKLGRAITEEDMIWDIKTMKRSNINAVRCSHYPNQSLFYRLCDKYGLYVIDEANLESHGTWEKVGGHEDPSFNVPGDDQHWLGASLSRVKNMMARDKNHASILIWSLGNESYAGTVFAQMADYVRKADPTRVQHYEGVTHNRKFDDATQIESRMYVPAKVIEEYLTNKPAKPFISVEYAHAMGNSVGDLAAYTALEKYPHYQGGFIWDWIDQGLEKDGHLLYGGDFDDRPTDYEFCGNGLVFADRTESPKLANVKALYANLKLEVKDGQLFLKNDNLFTNSSSYYFLTSLLVDGKLTYQSRPLTFGLEPGESGTFALPWPEVADEKGEVVYRVTAHLKEDLPWADEGFTVAEAEEVAQKLPEFKPEGRPDLVDSDYNLGLKGNNFQILFSKVKGWPVSLKYAGREYLKRLPEFTFWRALTDNDRGAGYGYDLARWENAGKYARLKDISCEVKEDSVLVKTAFTLPVALKGDLTVTYEVDGRGKIAVTADFPGAEEAGLLPAFGLNLALPKELTDYRYYGLGPNESYPDRLEGNYLGIYQGAVKKNFSPYLRPQETGNRSKVRWYQLFDEKGGLEFTANGADLNLSALPYSAAQIEAADHAFELTNNYTWVRALSAQMGVGGDDSFGQKVHPEFCLDAQKARQLRLVIQPLLLK
In the case of B2, the Michaelis-Menten constant (Km) is on record as 6.40 mM, the maximum rate (Vmax) came out at 640 µmol/min/mg, the turnover number (kcat) came out at 1240 s⁻¹ and the kcat/Km amounted to 194000 M⁻¹ s⁻¹.
